Measurements taken from the domain aggregation screens of Martell et al. (2025).

Experiment: soluble fraction after stress (log2 fold change); higher = more stays soluble; pooled small domains, quantitative proteomics
Settings: stress: 75 degC
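Note: 20 min heating vs room temperature control held 20 min.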

Sequence	soluble fraction (log2)
HMPFESEMKHWIHLFAHELNLKVSDKYTQKIIEIFGNNFSEIFNEMSKSSLVSSNEKDLLNALEKSGNIH	-0.799
HMPFGIYGGKVSSLDDLKDKAAVLVPNDVSNEARALLLLEAQGLIKLKEGVGLEATRNDIVEN	≥ 1.04
HMPFTLDGVNEGSRNDQAARMSGYLISKNLNMDFIKFFMQSWNRQNSPPLSQREINSVVDNVKRTHDRKNK	-1.88
HMPGKVSDAGATAKDNRLFLEAVFWRVRTGSPWRDLPPAFGHWNSQFRRFRRWAKAGVFESLFNA	0.182
HMPGRKKLAIIYKNDYIGAFNLADSYRDSYEVSMYAFPKKVGKLLNRLELQGFNAYVIYDKDNEENNFNTI	-1.82
HMPGSGELSRRLELAIRDRTAVRVTAAAAGQERSFTLLPVAITSGRLRATDEQAGVQRTLPLSAIVAVEA	-0.179
HMPGTEAQDGEVLLDALRRIHPDSSTGTLRRMLTQGRVQVDGTTVHAAKAELTSGQHVEVVAR	0.136
HMPIDIEPVLQWIRDNSIDGIGPARSMYHSAAAAAGLPSYSSLQLRKWTWPLLLDAAGVQRR	-0.427
HMPIRMLQVQKTNTGYLNVRDTPSVSGALIGKVFPGDMLSSTEERDGWFLVAVPQGGTGWVSGDYVKTTS	-0.191
HMPKAPHETLSRREMEVLLLLSEGVTLTRIGDTIHVSVKTVSTYRARILQKLDLQSNAELTRYVLQHKL	-5.8
HMPKHDWDAFAGAIARRVHDHGMPVSQGELVRDMMDWFAGRKDFPPPDERTVRRKVSAIWRELNG	-1.38
HMPKIPRLTLTETAGIMGVSQRALALAIQQGMYSWAQALPGRNKKRPIYFINAITFAKAQGIDLEEYK	-1.13
HMPKKLIWERTTSKLQLYITQDRYELKTPLMTIPFTSKSKMMVYLQQRYHLDMQEYRQIYDAG	-2.28
HMPKMDGLTVMEQVNQDHFVNKRPYFIVITAVGQEKITEDAFNKGANYYVMKPFNNNMLLERIKSVRK	0.642
HMPKYLNIYHELAQRIQEGALPAETKLPSETELMQEFEASRGTVRKAIDALQEKGFVRKHQGKGVFVLSQ	-0.00712
HMPLDYNELRSISPKAARQAILQILAANKGNVSATAKLLGVSRKTVYKAMHKKASGNLDDTSRAPK	-1.74
HMPLITAIELDSISARSFQFNTQSGSTYFIEGSTDLKSWDVIAEVKATDSTTTYEDHRKIYHEAYFYRVRL	-1.84
HMPLITDIKIQVKNTEKVSLFVDGKYSFSLTISQLAEHKILKTNQEISAKQVAEFKKLSNLTNLYIRIVG	-0.305
HMPLITLSAEIQSEQIGQRLDQTLAELFPEYSRSRLKTWIEADLVKLNNQIVNIPREKVLGGEHVEITVDI	-1.09
HMPLNRFLNLPHEDKERVLLIAKKQFSTHGYDAMSLNLLLKELDISKGQFYYWFEDKADLFFTVL	-0.11
HMPLRPNQRQFIHLMVYQGLDRNEAYAQANNKVLTEENYESIRTAAAKTFYTPHVNNYYHALMEEIRDRE	-0.471
HMPLSVRQRMSDILSNLKTSDFTNFADLFDPKEGRTGITVTFIAILELLREFLIEVVQSDHYQPLHVRAAS	-0.213
HMPLTAASLQTYLRGVDYPASKQDLIAHARKSDAPEDAITVLEQYSEQTYRSAADVSAEFGS	0.109
HMPLTEMAVRKHLSAELAQKGYTIDPRALEILLQRTNTNLTAIANELPKLLLVAEDKQITVNEVSAM	-0.319
HMPLTKKLETLFSLFPKYEKELKKKGVTRIHVWANYKEEYPDGIGRSQFIHYYSFWKKQVSP	-0.154
HMPLVIIRGIEGVFSSEEKAEAIRKVTDALVSVKGENVRGFAWVVFEEVKSGDWGIGGESITAEKVIMSL	0.158

Sequence	soluble fraction (log2)
HMPMDDETWDALSLFAYKRYARENGWPLMIGAEALRDTFASYFPLDSSTWQDRSSHYLTYQDGIYTRT	-0.247
HMPMDYFELFNIPRNANRETIKKILDQEYEKYRARVVSPVLEIRHEAELMLVEISKAKQVLLG	-1.08
HMPMHPEDLKKLVSIEMPFGKHKGRIIADLPGNYLNWFAREGFPPGEIGRLLQLMQEIDHNGLSDLLKPLR	-0.521
HMPMNISDIIKQAREELGMTQEDLAERLEVSRQAVSKWELGASVPSPENLRLLEELLGVELPAP	-0.198
HMPNFDPSYILDFGDVIQLQLVGQKNQILEIPILRDGSVNLPDIGKIFLSGMSLEEATKIIKDTYSA	-0.931
HMPNGEAYQRFTYENDILEGRFEEWDSLGTDIVKGDYTAGVRHKKWLYYDSEGRRDKFVFLDMDSI	0.116
HMPNNNDIVLDRVSFGYHEKEVLHGIDMTIREGTVNALVGPSGSGKSTIAKLIAGLWDVDGGSISF	0.555
HMPNPSAGRVHIDALLPFDRVEVTDMQGSLLLDHSFSPRRAVDLDLNARGTLLYTLWSKGHLLGKGRVVR	-0.606
HMPNQLLELVEMEIRDLLNEYEFPGDDTPIIQGSALKALEDPMGPWGDKIMDLMDAVDSYIPDPE	-0.686
HMPPAIKTLMFMIQNKSLLKSPKQLAVVQQQLKKIKGVRDVLILLEEGKVMLKVNKHETIHEASIIRLLGG	-1.87
HMPPALTELLSVRTNASGTIDYLLPDRSAGLRVENGSKYSGMVPDSIYRLVAIYEIKDAKEPSAYIYTI	-0.0495
HMPPFDDILAEYYEPLYRHVRRMVVSHDDAKDVMQEAMLRIFQGLDGLKDPSAVRTWVWRIATNEALRH	-0.0914
HMPPPVDLDKKGYKLRGIVLEDGRSAAFVFVPAEKRVVVLRENASGPVRLLETGMRRIRLQTPEGAGYLEL	-1.36
HMPPQPATQNTKAQVMQLAREKELMAGEGRGANVEALEKFANEHGISLRGMTEEQAEQLVKLLMEYTP	-0.239
HMPPRFVPATGADLRRWLDVSGLTAEAAGDLLGVSGARFRQWLSRYRSAPLPDPVRALLVALLRP	-0.00746
HMPPSRFNELSMWFQEQLTEAGLKVDSGALKMLIEWLGQDQARLPSIIEVLVSTYGTKKKLTVDEIEPFL	-0.384
HMPPTSADGIEKYLASGMIRGVGPVYAKKLVSAFGDKVFDIIEAAPHQLQEVEGIGRVRAASILAAWAEQ	-0.549
HMPQLEDLEPLDSSGMVRRDGPHLVLAVGRHRGRHLEEVRDSDPSYLHWLLSPKGIEDIQAKEDIKTYLNL	-0.0235
HMPQLVGDVDGDGRVSVTDGEWIRASYGALPWYAGWRAAADLDGSRKIDVVDLELLRTKMGN	-0.334
HMPRIYSITINPEKIRTVIGPGGKVIKDITAKTGTKIEIDDSGKVDIFSPDEEHARMAVEIINTLTEE	0.0671
HMPRKYFPFYFTFRETAQTMPPRLRAVFYEAIIEYGTTGKEPTLPKSIAGYWPLVKPTLDSAKAHYDAG	-3.62
HMPRNEIQRSVLNELVQWIKNNLAKKLTMQALSRFSGYSEWHLFRLFRHYFNMSPMAYIRQQRMQ	-0.366
HMPRPRIHSVVRGDTLYGISRQYGVAMSKLASLNGLKSPYRIMVGRSLRLPSAIEAERDRTAREVVQ	-1.53
HMPRVLSSYTLTLRHQPTAEAVALVRTLLSPAGSVEVKEDGRTLVVRDELAALSRIVGALRSFDH	-0.851
HMPRVSIEKIKKVVELLKHNPDYTYSKIGNIVGIGRKTVSGINNGKLYTDLVEELGINEFPI	-0.459
HMPRYQQIARQLKTAIEHGELKPGARLPSSRTWSQELGISRSTVESAYTELVAQGWLERRGQAGTFVSAQL	-1.04

Sequence	soluble fraction (log2)
HMPRYSGMFAAWLHKALARMGKSMSDSARSAFTERVELDYSSANNELQKLSLLVGDRKVITEADVMRAIG	-0.86
HMPSALGDKIRAARKALKLSLEDLAEKVSSSKSYMWELENRDEPNPGADLLMRIAAALNVTTEHLLGP	-0.28
HMPSDLQATLRAVQGMLQGVEGVDARLAGQRILLEGDSADARARERAAAIAGIFPGVVIDFVG	-0.263
HMPSEAVQNIIGNVKSKRRVATIGQARGLASNVIKEGKFDNVSNTAMVNRLIDLGIISNSIGYQ	-0.0616
HMPSEQGANKARDIIFRHHMKVDVWVGSWENARNYAEQAIKQGVKVIISRGGTAALLRHSLDTAIIKVR	0.14
HMPSGLFEPIKKSELSIESIDLLKDQIRAFKQADIRITFGFLLDLITKGENPAYVNASKLFEQAWER	0.141
HMPSPSTLAKVDPFLLVTNADSLLMARPDDSELRAAIITAHINLAKTNNSVDHYKEVLKIEPQNALANYN	0.17
HMPSPTPEQVLKAFTDAAMQKNTVEELKQAFAKAWKMLEGTPEQHKAQDVYNIRRDELEGAA	0.376
HMPSSIEGIEKYLGSGMIRGIGAVYAKRLVKQFGKDVFDIIEETPERLREVEGIGPIRAARIISGWADQ	-0.363
HMPTITSPMVGTFYRAPSPGAAPFIEVGDTVKKGQVIGIIEAMKLLNEVEADKDGVVQAFAAENGEL	-0.335
HMPTLNIVDGHIAASDGVRILSIHNVTGRRYATSSKLPAGIYIVVLMPAKAETPLTVKVIVEA	-1.42
HMPTMTDIPIKIIRSRRRTLAIEVREGGEVIVRAPLYSRKAEIDAFVKAHENWIITKYNLMITKQN	-3.51
HMPTPRVPMSKQRQILQLLQDGHLSTREIAAALHISKTSVGDIAKAARLAGLDWEAASKLSDEELSARIYK	-0.36
HMPTSPKANFLKELPQEFTRKQAVTIGDKLNIKERTVDNYLAKLEQAGYLVKPKAGYYQKIKS	-0.0924
HMPTTTFENLPDAKKKTIIAALLKEFSQSPLSKAQVAPIVKESQIARGAFYKYFVDLTDAYTYLYRQ	-0.0519
HMPTVLKQGSTGQEVKELQQALSKLGYRVTVTGEFDTATHYGVVRFQRKHRLTIDGIVGPQTLSKIRAHQK	-2.56
HMPVAPTYALTVKTDPPSANVRLLNSPTPYQPGVRLPSGNYDIEVTQSGYATRKESVRIADRDVALNIAL	0.265
HMPVASNRDVNLDIGERVFVQEWAPNRTARVQYRGSPWEARLAPGAPAAAGEHRVSAVEGNWLVLEPA	-0.139
HMPVEFVKISIKPGHPWENQFVRDIVSLPDLLMVLILRGEERIIPNGNTKILVGDKIVLSALSPG	-2.2
HMPVEHVWHIAENGQTSGPYSKARMGRMAQEGQLTRDTHVWTPGQDGWMRAGDVTELAQLFT	0.0383
HMPVFSLTPRELEILEWMSTPNTYRQIAAQLSVSEETVRSHAKNILEKMRQPNRAQAVLAAVKMGLIKL	-1.57
HMPVISGQDLRVLIRDTGRERDQGISFLDDGTMVVVEDARRLIGQEVTATVTRVHQTQTGRIVFAHLSN	-1.25
HMPVPSPAEQTATQLANIERHTGITVDGWTRAIAEAGAAKHGEIVAWLKQQGLTHGNANALAHAVRARQSG	0.581
HMPVQSNRDALLDIGQTLQVQAWDAQGSARVSYRGSDWTAEFRGPGAAAPGLHRIIAVQGNRLIVEPA	0.342
HMPVRIYEISKKLGLENKEVLATAKSLGIAAAKVPSSSLDKITAEYLEEEILKSHPEVAARLK	0.142
